This note sets out measurements from article PMC11014249.

Read-outs that look alike come from different tables or passages of the source.

For series [1], the target named is RccR from Pseudomonas aeruginosa (P. aeruginosa). Nature of the series: SEC. For orientation: Size exclusion chromatography separates by hydrodynamic size, large species first.
In another series the target is T1, RccR (PaRccR) (Pseudomonas aeruginosa, UniProt A0A071KWR3 1-293).
T1 sequence: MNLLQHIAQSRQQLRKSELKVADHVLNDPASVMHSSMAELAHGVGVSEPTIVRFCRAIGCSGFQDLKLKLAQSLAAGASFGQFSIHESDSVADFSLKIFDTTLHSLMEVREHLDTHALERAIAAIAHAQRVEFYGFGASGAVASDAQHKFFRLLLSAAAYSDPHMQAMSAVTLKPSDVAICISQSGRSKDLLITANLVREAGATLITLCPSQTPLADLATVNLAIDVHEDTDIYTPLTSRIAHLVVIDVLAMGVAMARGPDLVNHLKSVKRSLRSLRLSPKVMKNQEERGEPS
Nature of the series: EMSA. A general note: Mobility shift assays separate free from complexed probe on a gel.

For series [2], the target named is T2, RccR E200A (Pseudomonas aeruginosa, UniProt A0A071KWR3 1-293, E200A).
T2 sequence: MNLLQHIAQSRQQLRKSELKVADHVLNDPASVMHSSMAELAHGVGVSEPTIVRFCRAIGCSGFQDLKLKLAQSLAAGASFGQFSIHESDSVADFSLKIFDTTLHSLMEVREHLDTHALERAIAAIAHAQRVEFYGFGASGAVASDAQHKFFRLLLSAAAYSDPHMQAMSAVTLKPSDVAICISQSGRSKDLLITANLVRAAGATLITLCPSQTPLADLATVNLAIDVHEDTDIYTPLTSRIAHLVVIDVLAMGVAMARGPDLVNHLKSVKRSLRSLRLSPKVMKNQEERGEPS
Nature of the series: EMSA.

The next series addresses T3, RccR H164A (Pseudomonas aeruginosa, UniProt A0A071KWR3 1-293, H164A).
T3 sequence: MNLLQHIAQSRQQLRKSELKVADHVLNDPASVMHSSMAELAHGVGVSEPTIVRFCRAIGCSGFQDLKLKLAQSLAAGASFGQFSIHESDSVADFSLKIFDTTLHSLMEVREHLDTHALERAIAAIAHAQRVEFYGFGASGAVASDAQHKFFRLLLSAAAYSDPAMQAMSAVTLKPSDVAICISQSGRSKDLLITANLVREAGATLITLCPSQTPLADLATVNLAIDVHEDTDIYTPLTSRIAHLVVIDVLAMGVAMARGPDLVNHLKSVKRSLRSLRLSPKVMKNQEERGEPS
Nature of the series: EMSA.

A further series concerns the target T4, RccR K270A (Pseudomonas aeruginosa, UniProt A0A071KWR3 1-293, K270A).
T4 sequence: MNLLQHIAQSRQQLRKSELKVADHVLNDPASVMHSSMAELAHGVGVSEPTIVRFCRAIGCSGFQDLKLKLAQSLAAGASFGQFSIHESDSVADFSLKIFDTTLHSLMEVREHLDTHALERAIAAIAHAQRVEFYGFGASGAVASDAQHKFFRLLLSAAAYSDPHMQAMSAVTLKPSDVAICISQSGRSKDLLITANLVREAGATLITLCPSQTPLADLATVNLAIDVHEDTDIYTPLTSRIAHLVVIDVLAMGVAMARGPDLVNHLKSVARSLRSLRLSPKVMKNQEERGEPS
Nature of the series: EMSA.

The target of another series is T5, RccR H148A (Pseudomonas aeruginosa, UniProt A0A071KWR3 1-293, H148A).
T5 sequence: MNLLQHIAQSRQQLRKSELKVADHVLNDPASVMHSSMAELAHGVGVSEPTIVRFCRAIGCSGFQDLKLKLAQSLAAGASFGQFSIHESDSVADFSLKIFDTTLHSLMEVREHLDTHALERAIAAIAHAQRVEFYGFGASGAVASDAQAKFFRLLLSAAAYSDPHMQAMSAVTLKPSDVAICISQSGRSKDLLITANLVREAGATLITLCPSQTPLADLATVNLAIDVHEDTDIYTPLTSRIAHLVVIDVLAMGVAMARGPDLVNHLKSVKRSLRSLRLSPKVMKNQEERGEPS
Nature of the series: EMSA.

The target of a further series is T6, RccR T231A (Pseudomonas aeruginosa, UniProt A0A071KWR3 1-293, T231A).
T6 sequence: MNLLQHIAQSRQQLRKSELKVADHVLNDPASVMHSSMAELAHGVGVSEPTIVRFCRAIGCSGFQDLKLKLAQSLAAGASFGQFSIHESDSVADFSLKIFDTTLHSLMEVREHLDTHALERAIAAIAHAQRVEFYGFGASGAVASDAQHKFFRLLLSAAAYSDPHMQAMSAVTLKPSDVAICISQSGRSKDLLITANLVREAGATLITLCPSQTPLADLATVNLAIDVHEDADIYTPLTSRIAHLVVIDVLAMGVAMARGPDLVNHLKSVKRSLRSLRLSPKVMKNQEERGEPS
Nature of the series: EMSA.

For the next series, the target named is T7, RccR SSSS (Pseudomonas aeruginosa, UniProt A0A071KWR3 1-293, S139A;S183A;S185A;S188A).
T7 sequence: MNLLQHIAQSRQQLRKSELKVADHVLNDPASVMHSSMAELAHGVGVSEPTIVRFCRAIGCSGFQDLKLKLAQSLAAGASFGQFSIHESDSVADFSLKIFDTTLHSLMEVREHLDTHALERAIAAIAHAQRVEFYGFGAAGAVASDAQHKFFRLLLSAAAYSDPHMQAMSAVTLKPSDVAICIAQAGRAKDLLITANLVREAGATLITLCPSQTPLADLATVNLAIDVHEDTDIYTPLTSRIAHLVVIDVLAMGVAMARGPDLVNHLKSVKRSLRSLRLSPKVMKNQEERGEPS
Nature of the series: EMSA.

For another series, the target named is T8, RccR ΔSLR (Pseudomonas aeruginosa, UniProt A0A071KWR3 1-274+278-293, internal_change).
T8 sequence: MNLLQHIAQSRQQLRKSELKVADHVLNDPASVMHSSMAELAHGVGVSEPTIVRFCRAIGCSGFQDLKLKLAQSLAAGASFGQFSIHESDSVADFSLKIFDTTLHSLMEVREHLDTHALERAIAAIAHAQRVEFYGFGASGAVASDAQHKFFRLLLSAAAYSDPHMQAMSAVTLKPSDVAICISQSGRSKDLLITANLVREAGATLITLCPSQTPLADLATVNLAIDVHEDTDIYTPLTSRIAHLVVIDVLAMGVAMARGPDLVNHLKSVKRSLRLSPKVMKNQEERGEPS
Nature of the series: EMSA.

A further series concerns the target T9, RccR R152A (Pseudomonas aeruginosa, UniProt A0A071KWR3 1-293, R152A).
T9 sequence: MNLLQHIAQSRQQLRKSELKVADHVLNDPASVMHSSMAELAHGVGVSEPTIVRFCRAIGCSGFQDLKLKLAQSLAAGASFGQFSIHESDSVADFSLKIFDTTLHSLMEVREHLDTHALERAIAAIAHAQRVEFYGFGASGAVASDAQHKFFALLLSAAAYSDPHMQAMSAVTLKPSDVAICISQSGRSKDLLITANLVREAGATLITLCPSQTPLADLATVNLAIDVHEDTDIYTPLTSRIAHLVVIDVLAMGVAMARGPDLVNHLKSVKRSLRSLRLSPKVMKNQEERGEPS
Nature of the series: EMSA.

The target in series [3] is T2, RccR E200A. Nature of the series: EMSA. The source holds these as a separate data set.

By stoichiometry N is commonly meant a count of units in the complex or per binding partner. In series [1], “RccR from Pseudomonas aeruginosa (natural protein)” gave a stoichiometry N of 4.

B1: Variant1 (dsDNA)
DNA 1: ATCTGTAGTGGGACTACAAG
DNA 2: CTTGTAGTCCCACTACAGAT
Consider B1, for which the binding result in the series with RccR (PaRccR) is “binds”.

B2: PaceA (dsDNA)
DNA 1: TCGTGTAGTAGTCTTGAAAAAACACTACAAAA
DNA 2: TTTTGTAGTGTTTTTTCAAGACTACTACACGA
As for B2, in the series with RccR E200A [2], the binding result was “binds”.

B3: PaceE (dsDNA)
DNA 1: ATCTGTAGTAAAACTACAAG
DNA 2: CTTGTAGTTTTACTACAGAT
For the molecule B3, the binding result with RccR H164A, with RccR K270A, in the series with RccR H148A, in the series with RccR T231A, in the series with RccR SSSS and with RccR ΔSLR was “binds” throughout. For the same molecule, the binding result with RccR R152A and with RccR E200A [3] was “binds” each time.
